Target: T1, purified recombinant FLAG-Exp4 protein (human, UniProt Q9C0E2 1-1151)
T1 construct: human exportin 4, full-length cDNA assembled from three clones; also called recombinant Exp4; source: baculovirus system (pFASTBAC), purified recombinant
Experiment: pull-down; GST-fused HMG box fragments incubated with purified recombinant FLAG-Exp4 and glutathione Sepharose 2 hr at 4°C; Western blot with anti-Exp4; no RanGTP
Conditions: both partners purified

T1 sequence (Q9C0E2 whole entry): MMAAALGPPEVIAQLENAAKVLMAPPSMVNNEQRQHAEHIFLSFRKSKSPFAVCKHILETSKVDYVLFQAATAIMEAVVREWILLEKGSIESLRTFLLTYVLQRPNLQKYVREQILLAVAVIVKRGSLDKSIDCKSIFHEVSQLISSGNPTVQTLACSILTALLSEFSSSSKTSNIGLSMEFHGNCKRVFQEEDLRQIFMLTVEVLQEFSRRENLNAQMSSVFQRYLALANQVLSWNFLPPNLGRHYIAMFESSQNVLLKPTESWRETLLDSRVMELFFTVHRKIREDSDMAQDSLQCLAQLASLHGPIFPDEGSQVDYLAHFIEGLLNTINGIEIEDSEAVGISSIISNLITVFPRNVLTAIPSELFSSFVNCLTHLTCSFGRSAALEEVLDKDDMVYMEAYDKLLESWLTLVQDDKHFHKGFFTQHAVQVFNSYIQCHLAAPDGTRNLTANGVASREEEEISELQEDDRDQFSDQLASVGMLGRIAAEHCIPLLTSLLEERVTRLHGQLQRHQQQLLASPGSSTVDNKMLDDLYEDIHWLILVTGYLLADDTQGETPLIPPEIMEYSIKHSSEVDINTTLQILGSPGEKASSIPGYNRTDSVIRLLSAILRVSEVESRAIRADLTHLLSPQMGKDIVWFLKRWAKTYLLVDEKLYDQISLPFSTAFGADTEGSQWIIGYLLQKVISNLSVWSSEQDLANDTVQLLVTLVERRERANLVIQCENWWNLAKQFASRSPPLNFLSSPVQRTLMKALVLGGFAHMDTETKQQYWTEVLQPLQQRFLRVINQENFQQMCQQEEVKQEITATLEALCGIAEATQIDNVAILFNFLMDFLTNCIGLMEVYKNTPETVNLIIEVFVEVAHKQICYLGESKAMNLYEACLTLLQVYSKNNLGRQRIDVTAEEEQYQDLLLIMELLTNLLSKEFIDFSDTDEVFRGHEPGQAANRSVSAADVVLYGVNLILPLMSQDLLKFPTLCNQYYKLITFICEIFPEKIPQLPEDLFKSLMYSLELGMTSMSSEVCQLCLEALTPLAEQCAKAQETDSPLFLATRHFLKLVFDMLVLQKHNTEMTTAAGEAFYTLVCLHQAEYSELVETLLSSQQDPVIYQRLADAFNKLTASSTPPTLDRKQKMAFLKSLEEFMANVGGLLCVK

Row | binding result | Binder
1 | binds | GST-fused Sox9 region #2 (95–186 a.a.), HMG box domain (domain or fragment, mouse, UniProt Q04887 95-186, looked up, cloned in pGEX-6P-1; also called GST-tagged HMG box fragment of Sox9) VNGSSKNKPHVKRPMNAFMVWAQAARRKLADQYPHLHNAELSKTLGKLWRLLNESEKRPFVEEAERLRVQHKKDHPDYKYQPRRRKSVKNGQ
2 | binds | GST-tagged HMG box fragment of Sox2 (33–123 a.a.) (domain or fragment, source: E. coli, prepared on glutathione-Sepharose) not shown

Reference: publication PMC3185033, “Exportin 4 Interacts with Sox9 through the HMG Box and Inhibits the DNA Binding of Sox9” (PLoS ONE, 2011)
